Source: patent US20170022287A1 (Chugai, published 2017)

What was measured:
CRD1 [1] = target: T1, CRD1; test: ELISA, coated CD137-Fc protein 2 µg/mL, antibody 10 or 5 µg/mL, absorbance 620 nm; Non (uncoated well) 0.3465
T1 construct: also called fragmented human CD137-Fc fusion protein CRD1
Method: (§1) Fragmented human CD137-Fc fusion proteins were diluted to 2 μg/mL in an aqueous sodium carbonate solution adjusted to pH9.6. Fifty μL of a diluted fragmented human CD137-Fc fusion protein was added individually to each well of a Nunc MaxiSorp flat-bottom 96 well plate (Nunc). This was allowed to stand at 4° C. overnight or longer, and then the plate was allowed to stand at room temperature for one hour so that the plate has the same temperature as the room temperature. The solution containing the fragmented human CD137-Fc fusion protein was removed by tilting, and each well was washed three times with 300 μL of Wash buffer (TBS containing 0.1% Tween20, TaKaRa). Next, 150 μL of blocking buffer (TBS containing 2% BSA) was added to each well, and this was allowed to stand for one hour or more. The blocking buffer was removed by tilting, and each well was washed three times with Wash Buffer in a similar manner to an earlier step. Then, 50 μL of an antibody solution prepared in advance by dilution with TBS to 10 μg/mL or 5 μg/mL was added to each well. This was subjected to a speed of 600 rpm or so for one hour at room temperature to bind the antibody to the immobilized antigen. […] 100 μL of a secondary antibody solution produced by 1000-fold dilution with TBS containing 0.1% Tween20 was added to each well. For the secondary antibody, ANTIBODY ALKALINE PHOSPHATASE CONJUGATE HUMAN IMMUNOGLOBULIN ABSORBED Goat Anti-Human Kappa Alkaline Phosphate from BIOSOURCE was used in the case of antibodies carrying a Kappa chain, and Human Lambda Light Chain Antibody; Goat anti-Human Lambda Light Chain Antibody Alkaline Phosphatase Conjugated from BETHYL LABORATORIES INC. was used in the case of antibodies carrying a Lambda chain. […] Color development was performed using the BluePhos Microwell kit from KPL. After the chromogenic reaction was stopped using the AP stop solution from KPL, the absorbance was measured at 620 nm on an absorptiometer.

CRD1-3 [2] = target: T2, CRD1-3; test: as above
T2 construct: also called fragmented human CD137-Fc fusion protein CRD1-3
T2 sequence (chain, as listed by the source limits assumed): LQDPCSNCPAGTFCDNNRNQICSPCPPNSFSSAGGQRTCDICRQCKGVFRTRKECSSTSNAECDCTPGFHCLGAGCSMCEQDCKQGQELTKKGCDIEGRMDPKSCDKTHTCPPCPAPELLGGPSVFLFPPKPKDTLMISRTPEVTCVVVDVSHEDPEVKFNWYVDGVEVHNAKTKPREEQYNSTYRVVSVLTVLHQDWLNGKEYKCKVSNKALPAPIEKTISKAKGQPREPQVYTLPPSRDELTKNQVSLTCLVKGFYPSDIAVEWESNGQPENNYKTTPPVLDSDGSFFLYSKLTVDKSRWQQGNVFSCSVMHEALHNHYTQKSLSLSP
Method: as §1

CRD1-2 [3] = target: T3, CRD1-2; test: as above
T3 construct: also called fragmented human CD137-Fc fusion protein CRD1-2
T3 sequence (chain, as listed by the source limits assumed): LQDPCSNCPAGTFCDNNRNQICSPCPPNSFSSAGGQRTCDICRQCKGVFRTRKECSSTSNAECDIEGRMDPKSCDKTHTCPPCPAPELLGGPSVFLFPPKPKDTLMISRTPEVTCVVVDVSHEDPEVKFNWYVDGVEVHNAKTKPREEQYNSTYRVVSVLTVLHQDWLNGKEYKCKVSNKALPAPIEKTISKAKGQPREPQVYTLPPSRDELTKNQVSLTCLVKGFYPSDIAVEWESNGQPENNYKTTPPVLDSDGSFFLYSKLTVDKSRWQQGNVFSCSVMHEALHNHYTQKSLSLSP
Method: as §1

CRD2-4 [4] = target: T4, CRD2-4; test: as above
T4 construct: also called fragmented human CD137-Fc fusion protein CRD2-4
T4 sequence (chain, as listed by the source limits assumed): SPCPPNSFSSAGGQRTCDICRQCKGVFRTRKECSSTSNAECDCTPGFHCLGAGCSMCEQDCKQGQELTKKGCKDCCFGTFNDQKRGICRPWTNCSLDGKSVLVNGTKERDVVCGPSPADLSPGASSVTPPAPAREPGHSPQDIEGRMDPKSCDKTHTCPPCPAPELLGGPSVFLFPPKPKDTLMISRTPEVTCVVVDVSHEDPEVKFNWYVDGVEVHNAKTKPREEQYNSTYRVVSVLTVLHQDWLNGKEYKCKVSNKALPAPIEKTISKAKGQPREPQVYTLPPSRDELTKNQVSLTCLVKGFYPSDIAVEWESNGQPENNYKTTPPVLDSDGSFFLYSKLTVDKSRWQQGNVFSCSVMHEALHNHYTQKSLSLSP
Method: as §1

CRD2-3 [5] = target: T5, CRD2-3; test: as above
T5 construct: also called fragmented human CD137-Fc fusion protein CRD2-3
T5 sequence (chain, as listed by the source limits assumed): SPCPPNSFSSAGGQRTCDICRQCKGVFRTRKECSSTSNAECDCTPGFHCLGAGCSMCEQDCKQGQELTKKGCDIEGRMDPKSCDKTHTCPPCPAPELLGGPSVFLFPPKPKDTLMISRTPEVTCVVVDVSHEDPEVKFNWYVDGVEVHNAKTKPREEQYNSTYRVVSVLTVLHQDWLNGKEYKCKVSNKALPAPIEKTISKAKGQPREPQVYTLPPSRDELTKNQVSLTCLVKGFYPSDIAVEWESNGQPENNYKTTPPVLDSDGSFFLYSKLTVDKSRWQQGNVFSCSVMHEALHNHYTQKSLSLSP
Method: as §1

CRD3-4 [6] = target: T6, CRD3-4; test: as above
T6 construct: also called fragmented human CD137-Fc fusion protein CRD3-4
T6 sequence (chain, as listed by the source limits assumed): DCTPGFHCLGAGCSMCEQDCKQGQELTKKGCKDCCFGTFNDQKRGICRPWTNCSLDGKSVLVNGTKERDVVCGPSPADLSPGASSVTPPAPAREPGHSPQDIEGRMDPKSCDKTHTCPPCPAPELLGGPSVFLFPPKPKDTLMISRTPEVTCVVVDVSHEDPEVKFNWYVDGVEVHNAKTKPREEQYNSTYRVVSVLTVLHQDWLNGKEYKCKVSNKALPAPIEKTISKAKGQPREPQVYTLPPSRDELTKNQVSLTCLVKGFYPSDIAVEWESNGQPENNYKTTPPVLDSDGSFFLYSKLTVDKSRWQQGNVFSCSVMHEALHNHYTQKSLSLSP
Method: as §1

[7] = target: full-length human CD137-Fc fusion protein (human); test: as above
Sequence of full-length human CD137-Fc fusion protein (human) (chain, as listed by the source limits assumed): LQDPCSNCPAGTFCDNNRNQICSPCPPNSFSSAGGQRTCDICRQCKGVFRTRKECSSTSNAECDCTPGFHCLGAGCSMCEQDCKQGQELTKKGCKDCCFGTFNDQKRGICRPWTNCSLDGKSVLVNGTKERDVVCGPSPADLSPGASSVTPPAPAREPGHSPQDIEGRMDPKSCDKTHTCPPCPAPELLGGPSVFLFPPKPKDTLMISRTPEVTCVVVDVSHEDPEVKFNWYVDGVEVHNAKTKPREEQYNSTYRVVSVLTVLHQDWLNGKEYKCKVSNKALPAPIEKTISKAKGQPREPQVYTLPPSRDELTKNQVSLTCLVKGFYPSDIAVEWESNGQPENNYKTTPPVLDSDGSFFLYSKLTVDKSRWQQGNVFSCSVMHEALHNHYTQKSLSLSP
Method: as §1

CRD1 [8] = target: T1, CRD1; test: ELISA, coated CD137-Fc protein 2 µg/mL, antibody 10 or 5 µg/mL; absorbance 620 nm divided by that of the uncoated well
Method: as §1

CRD1-3 [9] = target: T2, CRD1-3; test: as above
Method: as §1

CRD1-2 [10] = target: T3, CRD1-2; test: as above
Method: as §1

CRD2-4 [11] = target: T4, CRD2-4; test: as above
Method: as §1

CRD2-3 [12] = target: T5, CRD2-3; test: as above
Method: as §1

CRD3-4 [13] = target: T6, CRD3-4; test: as above
Method: as §1

[14] = target: full-length human CD137-Fc fusion protein (human); test: as above
Method: as §1

CRD1 [15] = target: T1, CRD1; test: ELISA, coated CD137-Fc protein 2 µg/mL, antibody 10 or 5 µg/mL, absorbance 620 nm; Non (uncoated well) 0.202
Method: as §1

CRD1-3 [16] = target: T2, CRD1-3; test: as above
Method: as §1

CRD1-2 [17] = target: T3, CRD1-2; test: as above
Method: as §1

CRD2-4 [18] = target: T4, CRD2-4; test: as above
Method: as §1

CRD2-3 [19] = target: T5, CRD2-3; test: as above
Method: as §1

CRD3-4 [20] = target: T6, CRD3-4; test: as above
Method: as §1

CRD1 [21] = target: T1, CRD1; test: ELISA, coated CD137-Fc protein 2 µg/mL, antibody 10 or 5 µg/mL, absorbance 620 nm; Non (uncoated well) 0.065
Method: as §1

CRD1-2 [22] = target: T3, CRD1-2; test: as above
Method: as §1

CRD2-4 [23] = target: T4, CRD2-4; test: as above
Method: as §1

CRD2-3 [24] = target: T5, CRD2-3; test: as above
Method: as §1

CRD3-4 [25] = target: T6, CRD3-4; test: as above
Method: as §1

[26] = target: full-length human CD137-Fc fusion protein (human); test: as above
Method: as §1

T1 sequence (chain, as listed by the source limits assumed): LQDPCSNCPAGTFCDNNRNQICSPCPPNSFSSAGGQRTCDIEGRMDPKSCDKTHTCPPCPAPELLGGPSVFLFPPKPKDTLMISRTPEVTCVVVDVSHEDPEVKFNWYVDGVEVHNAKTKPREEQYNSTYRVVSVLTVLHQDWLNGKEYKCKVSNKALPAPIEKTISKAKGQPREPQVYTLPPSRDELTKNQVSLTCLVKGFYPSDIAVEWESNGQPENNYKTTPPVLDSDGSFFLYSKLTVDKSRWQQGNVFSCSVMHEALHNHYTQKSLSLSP

B1: R18 (antibody, V domains shown)
VH: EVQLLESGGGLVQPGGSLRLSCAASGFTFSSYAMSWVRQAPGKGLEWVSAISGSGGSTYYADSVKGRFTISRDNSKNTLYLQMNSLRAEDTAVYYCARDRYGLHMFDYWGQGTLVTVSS
VL: DIQMTQSPSSLSASVGDRVTITCRASQSISSYLNWYQQKPGKAPKLLIYAASSLQSGVPSRFSGSGSGTDFTLTISSLQPEDFATYYCLQFNSFPLTFGGGTKVEIK
notes: Synthetic library clone; Fab on phage in the phage ELISA
Q: Which results are given for B1?
A: ELISA color development level (CRD1 [1]): 0.4; ELISA color development level (CRD1-3 [2]): 2.29; ELISA color development level (CRD1-2 [3]): 0.419; ELISA color development level (CRD2-4 [4]): 2.27; ELISA color development level (CRD2-3 [5]): 2.49; ELISA color development level (CRD3-4 [6]): 2.65; ELISA color development level [7]: 2.03; Ratio with respect to Non-Coating (CRD1 [8]): 1.2; Ratio with respect to Non-Coating (CRD1-3 [9]): 6.6; Ratio with respect to Non-Coating (CRD1-2 [10]): 1.2; Ratio with respect to Non-Coating (CRD2-4 [11]): 6.6; Ratio with respect to Non-Coating (CRD2-3 [12]): 7.2; Ratio with respect to Non-Coating (CRD3-4 [13]): 7.7; Ratio with respect to Non-Coating [14]: 5.8

B2: R2 (antibody, V domains shown)
VH: EVQLQESGPGLVKPSETLSLTCTVSGGSISSSSYYWGWIRQPPGKGLEWIGSIHYTGSTYYNPSLKSRVTISVDTSKNQFSLKLSSVTAADTAVYYCARLNPSIAARPGAFDIWGQGTMVTVSS
VL: QSVLTQPPSVSAAPGQKVTISCSGSSSNIANNFVSWFQQLPGTAPKLLIYDNNKRPSGIPDRFSGSKSGTSATLGITGLQTGDEADYYCGTWDRSLSAGVFGGGTKVTVL
notes: Naive library clone; Fab on phage in the phage ELISA
Q: With B2 as the binder, how does the “ELISA color development level” value (CRD1 [15]) read?
A: 0.226

Q: What about the “ELISA color development level” value (CRD1-3 [16]) of the same binder?
A: 0.226

Q: And the “ELISA color development level” value (CRD1-2 [17])?
A: 0.202

Q: What about the “ELISA color development level” value (CRD2-4 [18]) of the same binder?
A: 0.15

Q: And the “ELISA color development level” value (CRD2-3 [19])?
A: 0.19

Q: And the “ELISA color development level” value (CRD3-4 [20])?
A: 0.11

Q: And the “Ratio with respect to Non-Coating” value (CRD1 [8])?
A: 1.1

Q: What about the “Ratio with respect to Non-Coating” value (CRD1-3 [9]) of the same binder?
A: 1.1

Q: And the “Ratio with respect to Non-Coating” value (CRD1-2 [10])?
A: 1

Q: What about the “Ratio with respect to Non-Coating” value (CRD2-4 [11]) of the same binder?
A: 0.7

Q: What about the “Ratio with respect to Non-Coating” value (CRD2-3 [12]) of the same binder?
A: 0.9

Q: And the “Ratio with respect to Non-Coating” value (CRD3-4 [13])?
A: 0.5

B3: R1 (antibody, V domains shown)
VH: EVQLVQSGAEVKKPGASVKVSCKASGYTFTSYYTHWVRQAPGQGLEWMGIINPSGGSTSYAQKFQGRVTMTRDTSTSTVYMELSSLRSEDTAVYYCARGAPEYSSSSDYWGQGTMVTVSS
VL: QSALTQPASVSGSPGQSITISCTGTSSDVGGYNYVSWYQQHPGKAPKLMIYDVSNRPSGVSNRFSGSKSGNTASLTISGLQAEDEADYYCSSYTSSSTRWVFGGGTKLTVL
notes: as for B2
Q: For B3, which “ELISA color development level” value (CRD1 [21]) is on record?
A: 0.123

Q: And the “ELISA color development level” value (CRD1-2 [22])?
A: 0.865

Q: What about the “ELISA color development level” value (CRD2-4 [23]) of the same binder?
A: 0.0935

Q: And the “ELISA color development level” value (CRD2-3 [24])?
A: 0.117

Q: What about the “ELISA color development level” value (CRD3-4 [25]) of the same binder?
A: 0.0875

Q: And the “ELISA color development level” value [26]?
A: 1.79

Q: What about the “Ratio with respect to Non-Coating” value (CRD1 [8]) of the same binder?
A: 1.9

Q: And the “Ratio with respect to Non-Coating” value (CRD1-2 [10])?
A: 13.3

Q: What about the “Ratio with respect to Non-Coating” value (CRD2-4 [11]) of the same binder?
A: 1.4

Q: And the “Ratio with respect to Non-Coating” value (CRD2-3 [12])?
A: 1.8

Q: And the “Ratio with respect to Non-Coating” value (CRD3-4 [13])?
A: 1.3

Q: And the “Ratio with respect to Non-Coating” value [14]?
A: 27.6
